The values below come from paper PMC11363328.

The data set concerns the target DDX3X (UniProt O00571). As to the kind of experiment: fluorescence polarization, protein titration. The following applies: FP: 14.4 mM HEPES-KOH pH 8, 108 mM NaCl, 1 mM MgCl2, 14.4% glycerol, 0.1% DMSO, 2 mM DTT, 1 mM ATP, 10 nM probe, room temperature, 10 min. In general terms: Fluorescence polarisation rises when a labelled molecule tumbles more slowly, as on binding a larger partner.

Chain of DDX3X (O00571 132-607): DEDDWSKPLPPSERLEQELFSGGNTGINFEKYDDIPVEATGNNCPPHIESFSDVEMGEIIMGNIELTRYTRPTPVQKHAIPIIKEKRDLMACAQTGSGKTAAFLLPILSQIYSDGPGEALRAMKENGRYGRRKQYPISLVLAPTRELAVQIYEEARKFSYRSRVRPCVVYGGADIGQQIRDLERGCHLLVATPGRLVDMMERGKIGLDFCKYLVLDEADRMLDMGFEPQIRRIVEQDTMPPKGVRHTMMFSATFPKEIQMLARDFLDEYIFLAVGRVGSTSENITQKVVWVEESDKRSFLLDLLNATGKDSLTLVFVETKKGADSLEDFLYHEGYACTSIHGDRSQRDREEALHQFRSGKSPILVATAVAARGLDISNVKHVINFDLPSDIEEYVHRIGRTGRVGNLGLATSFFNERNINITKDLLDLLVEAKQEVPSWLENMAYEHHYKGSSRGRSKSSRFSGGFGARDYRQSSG

As for AGAGAGAGAGAGAGAG [FAM-r(AG)8], the K half was 2800 nM.
